T1: GFP-SNX4, O95219
T1 chain: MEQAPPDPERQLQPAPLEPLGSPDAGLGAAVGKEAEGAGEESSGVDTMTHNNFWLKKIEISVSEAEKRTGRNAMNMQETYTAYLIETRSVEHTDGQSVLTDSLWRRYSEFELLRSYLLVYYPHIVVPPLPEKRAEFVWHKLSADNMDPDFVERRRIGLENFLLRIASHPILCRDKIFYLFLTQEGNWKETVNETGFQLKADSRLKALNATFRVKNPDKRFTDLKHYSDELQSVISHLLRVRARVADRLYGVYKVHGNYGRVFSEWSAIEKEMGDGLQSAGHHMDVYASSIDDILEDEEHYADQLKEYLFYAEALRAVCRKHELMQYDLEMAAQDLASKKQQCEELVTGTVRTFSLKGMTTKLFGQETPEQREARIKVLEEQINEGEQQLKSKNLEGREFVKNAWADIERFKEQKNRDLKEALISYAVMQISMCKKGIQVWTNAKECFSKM


Legend:
GFP-SNX4 = GFP-SNX4 (UniProt O95219); experiment: co-IP
GFP-SNX4, O95219 = molecular target: T1, GFP-SNX4, O95219; experiment: co-IP; conditions: remark: other sources report otherwise

Row | ratio of HA to GFP band intensity (GFP-SNX4) | ratio of HA to GFP band intensity (GFP-SNX4, O95219) | Molecule
1 | 0.65 |  | HA-SNX32 A226E (from UniProt Q86XE0 1-403) (natural protein)
2 |  | 0.92 | HA-SNX32 FL, Q86XE0 1-403 (natural protein) METYAEVGKEGKPSCASVDLQGDSSLQVEISDAVSERDKVKFTVQTKSCLPHFAQTEFSVVRQHEEFIWLHDAYVENEEYAGLIIPPAPPRPDFEASREKLQKLGEGDSSVTREEFAKMKQELEAEYLAIFKKTVAMHEVFLQRLAAHPTLRRDHNFFVFLEYGQDLSVRGKNRKELLGGFLRNIVKSADEALITGMSGLKEVDDFFEHERTFLLEYHTRIRDACLRADRVMRAHKCLADDYIPISAALSSLGTQEVNQLRTSFLKLAELFERLRKLEGRVASDEDLKLSDMLRYYMRDSQAAKDLLYRRLRALADYENANKALDKARTRNREVRPAESHQQLCCQRFERLSDSAKQELMDFKSRRVSSFRKNLIELAELELKHAKASTLILRNTLVALKGEP

— article doi:10.1101/2022.11.04.515170
